Test results: patent publication US12630600B2 (MEDIMMUNE LIMITED, priority 2022, dated 2026)
Starred links: 1 amine or outer side, 2 acyl side, 3 side chain; linkers in the order of their positions; H or OH if unused. Non-standard residues stand in square brackets, D forms with d. Groups on a side chain read outwards from the residue. No end group written: not given here. *: point of attachment. C20 diacid = O=C(O)CCCCCCCCCCCCCCCCCCC(=O)*; C18 diacid = O=C(O)CCCCCCCCCCCCCCCCC(=O)*; γGlu = O=C(O)[C@H](CCC(=O)[*:2])N[*:1]; αMeF = C[C@](N)(Cc1ccccc1)C(=O)O; AEEA = NCCOCCOCC(=O)O; Aib = CC(C)(N)C(=O)O

B1: Peptide 437 (peptide)
peptide: H[Aib]QGTFTSDVSK[αMeF]LDRK([AEEA-AEEA-γGlu-C20 diacid])RAQDFVRWLV[Aib]E-NH2
modifications: N-terminus assumed
SMILES: CC(C)C[C@H](NC(=O)[C@H](Cc1c[nH]c2ccccc12)NC(=O)[C@H](CCCNC(=N)N)NC(=O)[C@@H](NC(=O)[C@H](Cc1ccccc1)NC(=O)[C@H](CC(=O)O)NC(=O)[C@H](CCC(N)=O)NC(=O)[C@H](C)NC(=O)[C@H](CCCNC(=N)N)NC(=O)[C@H](CCCCNC(=O)COCCOCCNC(=O)COCCOCCNC(=O)CC[C@H](NC(=O)CCCCCCCCCCCCCCCCCCC(=O)O)C(=O)O)NC(=O)[C@H](CCCNC(=N)N)NC(=O)[C@H](CC(=O)O)NC(=O)[C@H](CC(C)C)NC(=O)[C@](C)(Cc1ccccc1)NC(=O)[C@H](CCCCN)NC(=O)[C@H](CO)NC(=O)[C@@H](NC(=O)[C@H](CC(=O)O)NC(=O)[C@H](CO)NC(=O)[C@@H](NC(=O)[C@H](Cc1ccccc1)NC(=O)[C@@H](NC(=O)CNC(=O)[C@H](CCC(N)=O)NC(=O)C(C)(C)NC(=O)[C@@H](N)Cc1c[nH]cn1)[C@@H](C)O)[C@@H](C)O)C(C)C)C(C)C)C(=O)N[C@H](C(=O)NC(C)(C)C(=O)N[C@@H](CCC(=O)O)C(N)=O)C(C)C
B2: Peptide 438 (peptide)
peptide: H[Aib]QGTFTSDVSK[αMeF]LDKK([AEEA-AEEA-γGlu-C18 diacid])RAQDFVRWLEA[Aib]G-NH2
modifications: N-terminus assumed
SMILES: CC(C)C[C@H](NC(=O)[C@H](Cc1c[nH]c2ccccc12)NC(=O)[C@H](CCCNC(=N)N)NC(=O)[C@@H](NC(=O)[C@H](Cc1ccccc1)NC(=O)[C@H](CC(=O)O)NC(=O)[C@H](CCC(N)=O)NC(=O)[C@H](C)NC(=O)[C@H](CCCNC(=N)N)NC(=O)[C@H](CCCCNC(=O)COCCOCCNC(=O)COCCOCCNC(=O)CC[C@H](NC(=O)CCCCCCCCCCCCCCCCC(=O)O)C(=O)O)NC(=O)[C@H](CCCCN)NC(=O)[C@H](CC(=O)O)NC(=O)[C@H](CC(C)C)NC(=O)[C@](C)(Cc1ccccc1)NC(=O)[C@H](CCCCN)NC(=O)[C@H](CO)NC(=O)[C@@H](NC(=O)[C@H](CC(=O)O)NC(=O)[C@H](CO)NC(=O)[C@@H](NC(=O)[C@H](Cc1ccccc1)NC(=O)[C@@H](NC(=O)CNC(=O)[C@H](CCC(N)=O)NC(=O)C(C)(C)NC(=O)[C@@H](N)Cc1c[nH]cn1)[C@@H](C)O)[C@@H](C)O)C(C)C)C(C)C)C(=O)N[C@@H](CCC(=O)O)C(=O)N[C@@H](C)C(=O)NC(C)(C)C(=O)NCC(N)=O
B3: Peptide 439 (peptide)
peptide: H[Aib]QGTFTSDVSK[αMeF]LDRK([AEEA-AEEA-γGlu-C18 diacid])RAQDFVRWLL[Aib]E-NH2
modifications: N-terminus assumed
SMILES: CC(C)C[C@H](NC(=O)[C@H](Cc1c[nH]c2ccccc12)NC(=O)[C@H](CCCNC(=N)N)NC(=O)[C@@H](NC(=O)[C@H](Cc1ccccc1)NC(=O)[C@H](CC(=O)O)NC(=O)[C@H](CCC(N)=O)NC(=O)[C@H](C)NC(=O)[C@H](CCCNC(=N)N)NC(=O)[C@H](CCCCNC(=O)COCCOCCNC(=O)COCCOCCNC(=O)CC[C@H](NC(=O)CCCCCCCCCCCCCCCCC(=O)O)C(=O)O)NC(=O)[C@H](CCCNC(=N)N)NC(=O)[C@H](CC(=O)O)NC(=O)[C@H](CC(C)C)NC(=O)[C@](C)(Cc1ccccc1)NC(=O)[C@H](CCCCN)NC(=O)[C@H](CO)NC(=O)[C@@H](NC(=O)[C@H](CC(=O)O)NC(=O)[C@H](CO)NC(=O)[C@@H](NC(=O)[C@H](Cc1ccccc1)NC(=O)[C@@H](NC(=O)CNC(=O)[C@H](CCC(N)=O)NC(=O)C(C)(C)NC(=O)[C@@H](N)Cc1c[nH]cn1)[C@@H](C)O)[C@@H](C)O)C(C)C)C(C)C)C(=O)N[C@@H](CC(C)C)C(=O)NC(C)(C)C(=O)N[C@@H](CCC(=O)O)C(N)=O

Molecular target: human GLP-1 receptor (human, UniProt P43220)
Assay: cell-based or functional assay

| Binder | cAMP production EC50 [pM] |
| --- | --- |
| B1 | 26.9 |
| B2 | 17.9 |
| B3 | 30.6 |

Molecular target: human glucagon receptor (human, UniProt P47871)
Assay: cell-based or functional assay

| Binder | cAMP production EC50 [pM] |
| --- | --- |
| B1 | 96.9 |
| B2 | 68.9 |
| B3 | 57.7 |
